Data reported in patent EP4740964A1, “NANO DELIVERY SYSTEM, PREPARATION METHOD THEREFOR AND USE THEREOF” (Chen, Haiyan, priority 2023, dated 2025).

T1: CD19 on the surface of Raji cells (UniProt P15391 20-556, limits assumed)
T1 construct: whole, on cells; also called antigen CD19
T1 sequence (looked up): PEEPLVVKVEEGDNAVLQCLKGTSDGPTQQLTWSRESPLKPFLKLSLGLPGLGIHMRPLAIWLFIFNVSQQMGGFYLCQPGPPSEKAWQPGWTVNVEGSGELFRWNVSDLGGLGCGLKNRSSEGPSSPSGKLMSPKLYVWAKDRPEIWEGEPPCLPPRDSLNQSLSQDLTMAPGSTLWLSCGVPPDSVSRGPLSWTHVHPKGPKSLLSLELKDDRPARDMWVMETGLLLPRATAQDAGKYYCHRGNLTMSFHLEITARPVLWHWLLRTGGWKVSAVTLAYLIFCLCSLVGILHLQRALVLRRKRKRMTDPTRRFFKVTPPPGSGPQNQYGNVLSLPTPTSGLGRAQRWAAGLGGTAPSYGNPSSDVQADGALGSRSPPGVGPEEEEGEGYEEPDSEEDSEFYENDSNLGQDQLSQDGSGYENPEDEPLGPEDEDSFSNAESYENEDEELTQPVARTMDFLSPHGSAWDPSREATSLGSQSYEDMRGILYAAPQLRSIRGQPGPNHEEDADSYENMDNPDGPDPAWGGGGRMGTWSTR


Columns and labels:
[1] = biological target: T2, CD22 on the surface of Raji cells (UniProt P20273 20-847, limits assumed); test: flow cytometry on Raji cells, Alexa Fluor 488 anti-human IgG detection
T2 construct: whole, on cells; also called antigen CD22

[2] = biological target: T1, CD19 on the surface of Raji cells; test: as above

Binder | binding result [1] | binding result [2]
CD22 IgG antibody (antibody, V domains shown) VH: EVQLVQSGAEVKKPGASVKVSCKASGYRFTNYWIHWVRQAPGQGLEWIGGINPGNNYATYRRKFQGRVTMTADTSTSTVYMELSSLRSEDTAVYYCTREGYGNYGAWFAYWGQGTLVTVSS VL: DVQVTQSPSSLSASVGDRVTITCRSSQSLANSYGNTFLSWYLHKPGKAPQLLIYGISNRFSGVPDRFSGSGSGTDFTLTISSLQPEDFATYYCLQGTHQPYTFGQGTKVEIKR | binds | –
CD19 IgG antibody (antibody, V domains shown) VH: QVQLVQSGAEVKKPGSSVKVSCKASGYAFSSYWMNWVRQAPGQGLEWMGQIWPGDSDTNYAQKFQGRVTITADESTSTAYMELSSLRSEDTAVYYCARRETTTVGRYYYAMDYWGQGTTVTVSS VL: DIQLTQSPSFLSASVGDRVTITCKASQSVDYSGDSYLNWYQQKPGKAPKLLIYDASNLVSGVPSRFSGSGSGTEFTLTISSLQPEDFATYYCQQSTENPWTFGGGTKLEIKR | – | binds
CD19 antibody antigen-binding fragment Fab (Fab, V domains shown, also called CD19 Fab) VH: QVQLVQSGAEVKKPGSSVKVSCKASGYAFSSYWMNWVRQAPGQGLEWMGQIWPGDSDTNYAQKFQGRVTITADESTSTAYMELSSLRSEDTAVYYCARRETTTVGRYYYAMDYWGQGTTVTVSS VL: DIQLTQSPSFLSASVGDRVTITCKASQSVDYSGDSYLNWYQQKPGKAPKLLIYDASNLVSGVPSRFSGSGSGTEFTLTISSLQPEDFATYYCQQSTENPWTFGGGTKLEIKR | – | binds
